The supplement of paper PMC10567573

B1: LCOR (parent)
chain: YKVKERLGTLKNPPKKKMKLMSG
B2: FAM46D (parent)
chain: FQEAMTHLQHKLICTRKPEEIRGG

Variants of: B1
Test: protein stability index of a GFP-peptide fusion (GPS, HEK-293T) (PSI 1-6); higher = more stable
Settings: c terminus: native
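Also: lentivirally expressed fusions sorted by FACS into six bins by GFP to DsRed ratio, PSI derived from sequencing read proportions per bin multiplied by bin number.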

Protein stability index of substitutions, site by site:
S22: K 3.02 | V 2.09 | A 2.85 | C 2.14 | P 2.45 | N 2.11 | H 2.95 | T 2.42 | M 1.61 | F 2.44 | I 2.45 | Y 2.65 | E 2.58 | D 3.1 | L 2.19
K16: W 2.45 | R 2.55 | S 1.46 | P 1.93 | V 1.87 | Y 2.98 | T 1.78 | Q 2.17
K17: Y 2.25 | S 1.42 | Q 2.96 | P 2.59 | W 1.83 | D 1.83 | N 1.83 | M 1.94 | V 1.68 | L 1.34 | F 2.02 | A 2.41 | H 2.02 | T 1.76 | I 2.58 | R 2.22 | E 2.63 | G 1.43
L20: T 2.32 | N 2.43 | G 3.74 | S 3.02 | Y 2.18 | C 1.8 | M 1.55 | D 3.66 | K 3.8 | W 2.95 | I 2.9 | A 3.14 | Q 3.83 | V 2.81 | F 2.55 | P 3.94 | E 3.99 | H 3.95
M18: A 2.49 | S 1.52 | Q 2.23 | W 1.36 | H 2.03 | R 2.2 | E 2.24 | I 2.02 | L 1.81 | G 2.59 | P 2.03 | Y 2.43 | C 1.82 | V 2 | D 3 | T 1.36 | F 1.98 | N 2.06
M21: G 2.91 | N 5.95 | F 2.78 | S 1.45 | L 3.01 | I 1.92 | W 2.82 | P 2.56 | Y 2.34 | T 1.76 | C 4.02 | H 3.33
G23: N 2.43 | Y 2.57 | H 3.01 | C 2.57 | W 2.19 | P 3.18 | V 2.11 | A 2.29 | E 3.19 | M 3.85 | S 3 | R 2.88 | D 4.01 | I 2.4 | L 2.75 | Q 2.78 | K 3.41 | T 3 | F 2.15
K19: A 3.4 | V 2.77 | G 1.34 | Q 3.03 | C 2.15 | I 3.48 | D 2.64 | H 2.51 | P 2.26 | N 2.96 | E 2.5 | W 2.52 | T 2.38

Variants of: B2
Test: as above
Settings: c terminus: a fixed tail appended

Protein stability index: each site, then its substitutions
H10: P 3.16 | D 3.14 | M 1.44 | Q 3.05 | C 2.72 | V 1.92 | F 1.73 | S 2.5 | T 3.52 | K 2.94 | Y 2.11 | L 2.24 | G 2.67 | N 2.93 | E 3.79 | R 2.71
A4: W 1.58 | K 3.51 | P 2.62 | V 2.63 | Y 2 | N 3.36 | I 2.42 | M 3.38 | F 1.82 | D 2.8 | E 3.28 | G 2.74 | C 2.61 | T 3.29 | S 2.99 | Q 2.98 | H 2.95 | R 2.75
L8: V 2.07 | D 4.31 | K 2.29 | W 1.89 | R 3.31 | I 2.88 | C 3.23 | A 3.91 | S 3.62 | F 2.42 | M 3.24 | P 2.99 | G 3.09 | H 3.57 | T 3.35 | E 3.69 | Y 2.34 | Q 3.68 | N 3.76
T6: F 2.11 | Q 2.13 | Y 1.54 | K 1.86 | M 1.66 | S 3.2 | V 2.86 | L 2.04 | P 3.04 | E 3.38 | N 2.11 | R 2.69 | A 2 | D 3.41 | W 1.49 | I 2.15 | H 2.22
E3: R 1.82 | T 2.54 | G 2.98 | V 2.08 | Y 2.3 | A 1.82 | H 2.21 | N 2.55 | K 2.17 | Q 2.52 | D 2.17 | S 1.91 | I 2.22 | P 2.8 | L 1.9 | C 1.64 | M 1.62 | F 1.48
L12: H 3.44 | D 2.98 | K 2.9 | N 4.18 | T 3.99 | E 3.27 | S 3.4 | M 3.84 | A 3.49 | I 2.78 | V 3.06 | R 2.71 | P 2.8 | C 2.84 | F 2.38 | W 1.27 | G 2.72 | Q 3.87
Q2: T 2.1 | K 3.46 | A 2.91 | H 2.02 | I 2.01 | E 4.25 | W 1.67 | R 4.08 | M 2.28 | D 4.05 | C 1.76 | G 3.01 | N 3.38 | S 2.74 | F 1.6 | V 1.56 | P 2.53 | Y 2.19 | L 2.32
Q9: H 2.67 | E 3.36 | G 2.09 | M 2.21 | A 2.25 | F 2.61 | C 1.89 | T 2.6 | W 1.16 | Y 2.3 | R 2.7 | N 1.79 | K 2.38 | D 2.89
K11: H 2.44 | D 2.88 | Y 1.66 | Q 2.41 | N 2.17 | E 3.88 | L 2.79 | C 2.89 | R 2.83 | W 1.58 | T 2.72 | F 2.16 | M 1.57 | V 1.86 | I 2.03 | G 2.38 | S 3.15 | A 2.54 | P 2.44
M5: E 4.43 | I 2.22 | K 2.94 | P 3.37 | T 3.12 | G 3.54 | H 3.79 | L 1.64 | D 3.44 | V 2.97 | Y 2.16 | R 3.13 | A 3.21 | F 1.93 | W 2.1 | N 3.53 | S 3.67 | C 3.35
H7: W 1.95 | D 3.54 | Q 2.93 | L 1.67 | K 2.61 | I 1.59 | S 3.3 | P 3.4 | V 2.48 | G 2.71 | M 1.11 | A 2.44 | T 2.77 | Y 3.71 | R 2.66 | C 2.85 | N 3.19 | E 3.86
F1: K 3.61 | E 5.26 | S 3.49 | W 3.28 | Q 3.85 | R 3.82 | N 4.29 | H 4.3 | T 3.96 | G 4.4 | V 4.64 | D 4.81 | M 3.67 | C 3.98 | L 2.93 | P 4.01 | A 4.16 | Y 3.2 | I 3.29
